The source of these data is the supplement of paper PMC12636428.

In the data set the test system is Saccharomyces cerevisiae. The data set is described as follows: transcriptional activation domain activity (GFP:mCherry ratio, weighted mean of sorted bins, harmonized to initial dataset scale) (arbitrary fluorescence ratio units); higher = stronger transcriptional activation. The settings on record: beta-estradiol 1 µM; induction time 4 h. An outline of the steps: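 The activation activity of each tile is the read-weighted mean of bin median fluorescence, averaged across its barcodes and mapped linearly onto the scale of the initial dataset. Tiles were fused to an estradiol-inducible synthetic transcription factor, barcoded, and integrated at URA3 in yeast diploids carrying a GFP reporter. Induction used 1 uM beta-estradiol in SC for 4 hours at 30 °C, after which cells were sorted into 8 GFP:mCherry bins, and any tile with fewer than 50 reads was dropped.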
Consider “RTKASGSSGEAAAASGGASSSKAEDARAEGGEEAAKPRRSSRLSAKSAGESAG”, for which the “transcriptional activation domain activity” value worked out at 15000. Next, “CPACLSVCTYYLRCLLCSAALYTMGLLAFWWRFLFWHDCILLWSLSLFPFTLS”: 87400; “EAQAEEEVAPAPKPRGRPRRAAAEAPAPEISKPTTRGRAKKVEAPAEDVIVVE”: 24100. In the case of “EKPKPEESPKGRGKSSGEPAPIPPSNGAADSKPSSAGAGNGSGSGSGDGGRKG”, the “transcriptional activation domain activity” value is 39800.

For the sequence “VLTLTFNDGKKHEDLSKQLLFVIHDIFSCDQNSPGYVLLRLLRSFLVLDVYMS”, the “transcriptional activation domain activity” value was 65000. “LIVVCPCLNRAHPTCLKELQTDYICNMCNSIYQLKYIRFAQLLCFACHVLSLA”: the “transcriptional activation domain activity” value was found to be 84300. In the case of “DTWGMEMEMEMEFLFLFLFVIFFLPCLSFFFSYFFSSNLLFFFFVFVMSFSFM” it was 73000; in that of “PPGNRTGAVTIGDESINGSEMPDFSLDLVSNDRQTGLEALDYDIHNYFPQHSE”, 75200. In the case of “TLFTGMHKNIIRLLPYRVARILYILLRVVRPVELMPILKFWIPVGNNKANAAV” it was 40700; in that of “TPIDVETDDPDIYIKPALDGSLNLLTSIVRYGQVIRGLSSCIIHLFNNVHLVR”, 43000. Next, “RQLVLLQKAEVDLFYMTVALILICALCAGLCLNIAIQARGTTLLTNWTQLEFC”: 58300; “LSIWVKYLGCIVRWRKVRIFGESILPIQLLVVVVLLTLRPCSICAPLKVLPYK”: 66000. On to “MYSIGVLTWKHDIGFFEDLLWSWCRVCFERYYTNVSPCTKLLSMELLLNCLLG”, for which the “transcriptional activation domain activity” value is 69100. As to “MSRQPVRAIFLYDILLFFLSGRSIDFVLIFSTWPFFFSFFLSFSLPPYFYFIL”, the “transcriptional activation domain activity” value is 71500. In the case of “IRTLRRSAREVLTVYWVLHGILPFPSIHSLDPYILSRRWSLCLNCLFLYALYF” it was 49700; in that of “EETPVTEAPKAVEESKPVEEVKSEQKEGAAETAKDEPAQETATERSTESTPAS”, 34900. Turning to “TTTGTTTTGTTATPSSSPETKPNKIPISMQGYAYSGGGRAIARVDVSLDNGRT”, the “transcriptional activation domain activity” value was found to be 37700. Next, “MPPAPKSPQPRRPGAPKSKGAVRAKSGCYTCRIRRKKCDEQMNAEGSCSTCVR”: 42800; “KQYCVRPNSGRIEPGKDVEVQILLQAMKEDPPMDAKCRDKFLVQSVAVTADKE”: 59200. Regarding “ALNITYLFLGTYGWEYFGSCSVECALVCGRLAFRLSLIPYVLGRTSLLIYFIL”, the “transcriptional activation domain activity” value worked out at 41000.

Turning to “DAGSGGGEVRRAGGSGILKESGTFGDCRCLSRYASAASLRVHVLLCWENALSA”, the “transcriptional activation domain activity” value was 40400.

In the case of “LFALAMLLLFCFIGLLVSGLHFGHRVYSDDCLGQSWIMFSSILGFLYIGLHVQ”, the “transcriptional activation domain activity” value was found to be 32600.

On to “MFLCFFHVFMLYLCHYVIVMLIYFLIYFMLFLLFMFLNTILQYEFLILHFCFI”, for which the “transcriptional activation domain activity” value is 47500. Next, “SQKKHCELCKTAFRFTKLYSPDMPKHLPFHIFVHHMTRYLLRNFLVWLRAALV”: 43000; “EKKVKAPKSPKKEKKKEEAEAAAPATEEPAKDEEPAAAEAPAAEEAPKEEAAA”: 41200. In the case of “LSLWSHTCRHYCSVIRCKHICMILCHIRANNSLIGMIGILLVLNCTILPSNRV” it was 69900; in that of “MGTLLFVFMYYGWAFFLDYFIWCFVVSLCFWYKVCLAVLLLAFDVYCHLWCMI”, 60200. Next, “KRSKSPDSRHSSSRKRSRSRERKHKSSRKRSKSREGKIKKSKSEKHRSHKHKR”: 46300; “MCRTLISFSLFVGVFILTSIRFFCLSLFFLSSFIFYFTLLLFFLLFLSGLFDL”: 50300; “AAAATGSKRKADDASDEEQEEGDKEGDNNKGEKQGGEPAGKKQKQTAGVKRVV”: 27500.

On to “RLEKQGWFAYIKEFRIFLPCLWPTGSIRGKLCLVVLILDLVINRFLRVLTPRQ”, for which the “transcriptional activation domain activity” value was 59800. Regarding “ALRDSKSSDPKVKKEGEDFLAQLRIGKSYLHGLDAEGRPMCIVRARLHRAGEQ”, the “transcriptional activation domain activity” value amounted to 48900. With “LTQRNTCITGGPFWFFFFFFCLLVFSLPPSLKLFPTLPRITCLFSHVFFFFFP”, the “transcriptional activation domain activity” value was determined as 15700. Next, “TGGSLFGANKPAFGNAASTSGPFGGGASSGFGGNTGAFGSPASTALGATTGEC”: 51300; “PFTIVFILPFDFSSTQYRICEHNCDAPLGYISSQFTRRLWVVLYWTMYLLTWL”: 67000; “PQQNIAPPFLNTNSSATDSNPNTNLEDSLFFDHDLLSSSITNTNNGQGSNNGR”: 24800. With “VPRLKSPVYCVCLGSIILYSICLVLLVIYRVALIRESDGVCLIGFARGGSLPL”, the “transcriptional activation domain activity” value amounted to 31200. Next, “MSADYAIGQFRYLAKLLLVHGHWNTYRIGVLHQVFFYKNLIWTGCLLIFQIFT”: 45800; “AAAPRAKNAPRGKKQTAAKTAPEPEPEPEAEPAPAPKPRGRQKKTVKASAPEV”: 20800; “NLLARRPFFVFWFMGQIHRSLTLFHCDPTLLVALDVCKSLIPAINYLTLLWPC”: 70900. For the sequence “KWKEKRSRNDEADGERGAERKPRKRSRSPRRRKEPEAAPERKQQEKPASAAPA”, the “transcriptional activation domain activity” value worked out at 45600. Turning to “LIHFFRLYRSGHGPIRMFFLHIQALYNLFNLIFSWFALANLWLTFSIIIRLVP”, the “transcriptional activation domain activity” value is 70000. Consider “MFWIFYELFLDGQDIHRFSLLLVFFLFFPFASYTYSLLLLILYSVSPYGFLTS”, for which the “transcriptional activation domain activity” value came to 38000. As to “MDISFFMLFVFDDFFLYSYFFFPSPRPLSNDATLIHIVCILFIILVGLTIVLL”, the “transcriptional activation domain activity” value was found to be 36800. Turning to “LQAARSADIAISQFRYLKKLLLVHGAWSYRRLATLILYSFYKNVVLYMTQFWF”, the “transcriptional activation domain activity” value was found to be 65100. In the case of “ADGEEEEEEGEAAGGSERPGIWGQALMELGSTVCTPKPKCVECPVTATCRAYQ” it was 55800; in that of “RWQYATLFFSGVSGGATLALSLCVITHPSLLTRIVVVCIFLTLISAFTILPIS”, 38500; in that of “EASPQPSPQPESQPAPEASPQPEPQPSSKPSPQPESQPVPEASPQPEPQPSPQ”, 18200. For the sequence “VKEKTDQAKAEDRKRAEKRGEQYEDSSDEEKERRRKARQKAKQGGGTGAAKAP”, the “transcriptional activation domain activity” value was 26200. Next, “MPTPGLDHSLQMMPDGNSGVNPSLLGDFDLFSASAYQAELDYLSFPFMDSFLA”: 140000. On to “LNKVCCIFCFLFSFYLLSFYSPFYFCFAFILLLSFFFFFFFFLLLLYFLLLSI”, for which the “transcriptional activation domain activity” value is 48600.

Regarding “WWLRINLNICISYWIVATGVVVVYDWVLTLYGACQILLVMQMFVLGPCLILSV”, the “transcriptional activation domain activity” value was determined as 46900. Next, “MSLKRRAHRKSRNGCRECKRRRIKCDETKPHCGHCVRHGIHCVYPESAGASPA”: 43000; “PTGRSSTPTSASSTRARRTRGSASARSSRAAGGGSCSSTCRSPPGRVPRTSVS”: 36800.

Consider “RRDALRAQQQRDTHARHGAGAARKHGQPVCVRQHRGQLHLSEPVGGAAAAAVH”, for which the “transcriptional activation domain activity” value was 66200. Next, “VLFSQRRRWINSTVHNLLELVILPELCGFCCFSMRFFVFIDLLGTILTYLVVV”: 61100; “DGKTRRSKVRPRRGAPTGAAGSPAAAGSSKSDTEANSDKGAAGKKRKPRPARK”: 37100. In the case of “QLMESVSELDLPPLTLDEPPQAIKFNLNLFNNDPSGQQQQQQQQQQNSTSSTI” it was 29000; in that of “AAGGSSSQAQITVNPGAKAEEEAEEDEGQLVQRMARRGIKSHVFVGSEIVQIP”, 33900; in that of “GVCLKVGITRPKKPNSGERKTARVRLSSGRMITAYVPGEGHNIQQHSVVLVRG”, 51900.

Consider “MKKLEKLLLSNDLTSQKKAFLVLCRMHYLTSSLLSSCVVVLVVGWSSIQKNTT”, for which the “transcriptional activation domain activity” value came out at 63400. For the sequence “ERDKRDDKDRERRHHKRSRHHDSDEERREGSSSRRHRHKSRRSKSPSSKVNEE”, the “transcriptional activation domain activity” value worked out at 22800. Regarding “EVETRYTLAIELFQPILKVLVDFESDDLKFGFLVAWLVGLYRRLWELCVFKYI”, the “transcriptional activation domain activity” value was 58900. Regarding “LLLPELFFFHLYWALIAFRFIPLLTLLRGMGYCLFFSLLFFFLFFSLFSVLFT”, the “transcriptional activation domain activity” value is 53000. Next, “MYRWISSIDAICVHLWGYMKNLACLLLTHIFYCLASMCLLLVDTLITGVGNIP”: 61100; “RIVRLSFAYTSFIVLPWQQLSEFRGQAYTVGACLEALRLMPNLLRCAFAAYEL”: 53600; “TGAPIRLVAEKAEEQEQDQEGEAPAQDQAQDQEQTQDQGQARAQAGTKAQATK”: 8780. “MYYLLLPLAYSLSHSVFFFFSVFLLRVLQYHGWWPFLLSSLCVFFLACVFVKG”: the “transcriptional activation domain activity” value worked out at 27100. Regarding “FALFPEDPIILTIFGFFFSIPCFYYIVAKPQYISASRFVLLTYNLTCLYCYNL”, the “transcriptional activation domain activity” value amounted to 32600. “SPLPLLICSLPSLVNPLPLLPSTLALLPPPFILYYVLQYHVILFVFLVVFCFS”: the “transcriptional activation domain activity” value was found to be 33200.
